According to the DeepSol protein solubility set:

Test: soluble on expression in E. coli; label from the status in PepcDB or PDB records

Soluble on expression in E. coli, not soluble:
MGSDKIHHHHHHMEERIGLIDIGSNTIRLVIFGYNKKTGLNEILNIKTPARLSQYLTKSNEMNDEGIHVLKETLSSFRKVADKFNVDALYPIATAAIRQSKNREAIIKEIKQDIHIEIQIVPEEDEAFYGYYAITHTTDIENGISVDIGGGSTEVTLFKDKQLKEAHSFPFGVVSLKRQFFGDKAHNDKTAIKNMEQFLREQFSQLDWLSNQHIALVGVGGSARNVARIHQSAHAYPIGGVHNYKMTSKDINNVYDLIRKSSRDELTNLDGLSRDRVDIILPAISVFKTLFKKIDATQFTFSRKGIREGFIMNHISKRYPDEFNKSNVRKDALRHLANEYHIEETSANRRVKLAQSLLNQIISERSLNISAMEKELFIEGSYIYYLGSFIDSDSSSPHTYYLIANSMINGFSHKDRVKLALLASFKNKSLLKFYCKETQWFSNKEIDTIQALGGIIKFANTLNISHTSFVEEVKLKAKKDDKYDLLVYYKGSPIAEEYQANRQKKHIEKILKGKVSIIFTKS
MGSDKIHHHHHHMEFSPQQDEALQAVARWLQAGKPQLFRLFGYAGTGKTTLARYFAEHVDGQVQFAAFTGKAAQVLRSKGAVNARTIHSLIYRPKGEESVEDEVTGKTSMSPTFSLNRQSPISRAKLVVIDECSMVDEQLGRDLMSFGTPILVLGDPGQLPPISGGGFFTDHEPDFLLTEIHRQARDNPILRLALDVREGREFMRGDYGTAQVIGKEDVTQELVLKADQVLVGTNRTRRRYNQRLRELKGFNADYPQAGDKLVCLRNDPAKGLLNGSLWKVMTSSRETVKPGINLLVSPEEDDPDRGVAKIKLLKAAFEDPDADIPWQQKKRFDDFDYGYALTVHKAQGSQWNEIVLFDESWAFKETRQRWLYTAITRAAERLTIVR
MGSDKIHHHHHHMEFVFGKKVFQSEVRKASDLKPVLAFPEALKEDFDAYYMFRDSFKTDEEAEIIRNAGLRYDYTVIPPNNIGGESIKTYGHYHPEVVRGFTYPEVYQVLEGEALFILQKPSNGKIEDVIVVEGKKWDTVIIPPNYGHVTINPTESDLITANWVCRNFSSIYEPYTKRRGACYYYINGEWVRNRNYDDAPEIRFAKPKNVLDVKGDMYDLVYTIEKLEFLVKPHEHQEIFENAFEVV
MGSDKIHHHHHHMEHLLHYVWKHKLFPLKILQTTKGLLVEIIDSGLQNPDAGPDFFNAKLKIDGTLWVGNIEIHTHSSDWYRHGHDHDKTYDSVILHVVAEADAEVTRSNGEQIPQLLLTCPENVQTHYHELCIADQYPACYSIIGSLSKLTIHSWLTALQTERLEQKARQIADRLERCDRHWEDAFFITLARNFGFGLNGDAFETWAGLLPFRAIDKHRNDLFQIEAFFFGQAGLLEEAFLKKEQEDEYSLRLRKEFRYLQRKFELNQVMDAGLWRFLRLRPENFPHIRLAQLAYLYQKVDKLFSQMMEAETLPEVRQLLSTHASAYWDNHYIFGRPSPQREKSMGEKSQDLIVINTVVPFLYAYGLHRTDERMCDRAGRFLEELKAENNHIIRSWGDAGLPVGSAADSQALIQLRKEYCDKRKCLFCRFGYEYLRKK
MGSDKIHHHHHHMEIDPRAQLIEWESSSLGVKGRMYVYTPPEYHPHGPALPVVYLLRGHEREWVNRREDDSRMGSAIDVYERVRARGEIGPLILAMPGLASTDNRIPGLLADFAAPHLTDAEGIGSGRFATFFFEEVLPLLEREFHAHPQARAITGFSLGGYMAVKAVALHPELFVSVSAYDGSFPYASDNGRRSRRYDTLFTASMFDPALGRPRDPDRLRDHNPICLLMRANRAALRRITWMIQYGPEHIEPWGANFYRGEYLLRALATLGIANATPIAALPDGAHTWAVADRHLEQALPLHYRAFERVMKSDP
MGSDKIHHHHHHMEIHMNPWLNAVAQVEALEDLVLNADLVDSMRERWSGLSGSQVGRINFYTPSFKHHETSEVSACGKNAFPAISITGGDCKLQCDHCKAKILEPMIPVRTPEELDRLVDRIVLDGGRGLLLSGGSDHQNVVHYEPYFPTVRKIKDRYPNLQIAMHTGIATPEFARGMEDAGVDVAMMDVIGAQDTINQVYHLRRSVDDFEAALEALVATRMKVVPHIVIGLHYGELLGEWNALEIIQRHLPSALVLVVIMPQYAASSRPFATPAADEIGKFFMDARAALPETPVLLGCARPSGVHRSITDTYAVMAGLNGVAFPSDGMLALAKHLERDVFVTPSCCSMIVGEEVLALGDETTTVPLDYVPAAPKRRPQLRDIPIVFTA
MGSDKIHHHHHHMEIQNLKFEDRDEFKRKSIAAKVISVLQADIDISPMVIDGSWGTGKTEFCHKLINLMHVSDTHHLIYVDAFKADHADEPLMTVLAEVIKVLPDDDSKQSFMKKALPAVRYGLKTIAKAGVSHLLRQDIADVADDFDKQIQGAADKAIDATVESVLKDHVKADKNLKALQVALADIAAIKPIVLFIDELDRCRPNFAVDMLEIIKHTFDVDGVKFVLITNTQQLKASINHCYGLSVDAQRYLDKFVKFTIALPETVDTNAHRESIAAIEHYKNLVRSSHVLVDMKLYECGSIRTIEQIIIANRLSLREVETVVRHIEIYVTLAQSNNLQSNTIFGYKVLTILAIAIYSIQPEVALSILQKKLDAKDIGNCLGISSLSNNIQGRPDEQELICYMLGYTALHNKEHFTPTEDVDVWKQESAQYFRGAHWRTDDFASICAEAIQTLTMC
MGSDKIHHHHHHMEKEIAIITLHGMGDYKPNYFEALKNQLEKKLGTKWDKIAFEPVQYQPILQQNQIKIWQRMNSYPLDGSILRRFLLFGFSDAGSLEYSARSKVSVQYIEVQKEIMQALDKLYVELGNNDKPVIIIAQSLGCQVISNYIWDAKHDSGIFNGLEPDASAQLKSFRRLNSCVHLLTTGCNIPMFVAGLNPIEAIQKPNNEFTWFNYYDRDDVLGWPLSPLSDSYGALVKDHEINAGGIFSSWNPWSHGQYWTDKDVLNSLIDRIRRYI
MGSDKIHHHHHHMEKNYYLTKTEQRIFNVIKHAKIITVREVAELFPELSRNMICKALSSLEKKGYLYRIKNGLYLIQQAPTKGSIIIEDPYRIALAMFSGYIAFSSALRLYNLIEYEPFTVFVATPRKSKKVEIDNYIIQAVALGEKATGITLYNGVYTSTLAKTFFDCFYKPQYCGGYETITKALYEAESIDWKEFLDYFKRFASPSLFQRTGYILELMNKELNFKIPKEVLEFFRSKVETKTKLVPTSPSRGKFIKEWKLLDNLGKDKILGWAYGY
MGSDKIHHHHHHMELTGHMKNNRYSIFRNAICIAATAGMLFGCGPDKKPVEKVAEEVVLQPMVTPDFNSDSSYEYVSRQVAFGPRVPNTKPHMDCGEYLAKFFTKHGGWVYRQQFSAKAFDGTDLRLKNIIVSYNQKATKRILLAAHWDTRPFADQDEVDPKKPIDGANDGASGVGILMELARVINLAEKKPDVGFDIILFDGEDYGQPMYYPGPYQNDSWCLGSQYWAKHKFPANYSAYYGILLDMVGAKDATFAKEGVSVENAPSVVNNVWTTAARLGYGKHFINVMSQPITDDHTYINKLALIPMIDIIEYENSDDVYFGSYWHTHNDNMNIIDKNTLKAVGQTLIEVLYREKL
MGSDKIHHHHHHMELYAASYILPIASPPIPGGAVAVHDGCIVETGTLAELRSRHSGPVHDFPGCAILPGLVNAHTHLELTHFPSWKIRKGIDYSPRTYVDWIIQVIKIRRALSPQELELSVREGLRICLEAGTTAIGEILTDRSLIPLYADSGLRGRLLFEAIGHDPVRNAQLVEELDAAIASFSGGSFLPGISPHAPHTVAEHLHQDVYRLAYERNVPRVIHLAESREESDFFFDSSGKIAEFLYPHVRWESYLPAPRRTTATAWLDGLGVLNGTISAVHCVHLTPSDAEILAKRGVGVVLCPRSNDKLAVGRAPVVLLKRLGVPLALGTDSLASNDSLSLWDEMRYLLDTFPGIFTPTEALSMTTIGSARQLALADRTGSLDKGKHADFLVMKLPGRNGSGEALHEALIHSGEILQVFLAGNLVVSREAFS
MGSDKIHHHHHHMEMLFLLKNLYRDPLALSRFSQFRCLHISKGEIIQNLNETHEFQVCFVLKGSLCLFRDHIESMPLMAMQNEFFFISSLHQCKIKAMDEVQLVIHACNIVAPYLHSRTIEYLQDISIEEVKPVEVLPIYPLMRSYLDLLVDYMKNGTEIPDLHRAKEYELFSLFKICYKKNEIASIFRDALSNDLQFFVSVMTHYKACRTAKELAVLCGYNDTVFTQLFKKNFHGDTPYQWLQKQTSYEIEFKLKKSTLPIKQIMLDYHFKTFSHFTTYCKRNIGATPNEIRKKGEESRDTPSLETYSVSAND
MGSDKIHHHHHHMENKEVIIIGAGAAGVGMGVALKDFGINNFAILERKQVGNSFIKWPEQTRFITPSFTSNGFGMPDLNAIAIDTSPSYTLGEERLSGKDYAKYLQLVSEEYKLPIKTNCKVQSIKKEKTGYLLETTKGFIYAEYVIFAMGEFSFPNKSSIKGAYKNSLHYGEINSWIEIKGDKQTIIGGNESAIDAAIELAKLGKRVTIYTDTLGLNIRDADPSKRLAPRTRQRFFDLRVNQKKLDSIKIYTTTKVKKIEKKSTSYILITENGKSLPVENIPILCTGFKNGTKSITASLFKYKENGEVLLNDFDESTIAKNIFLTGPNVRKGNTIFCYIYKFRQRFAVIANEIARRKHITIDEKKLSYYKNQSFYLDGCSGCEVRCSC
MGSDKIHHHHHHMENQTGIFNSYKIDPAHFDEAWLPTGDVRMHYKHLMETFKGLDIEEYLKINELAKGNLFNQGVTFNVYSENAEGVERLFPFDLFPRMIPSEEWKTIEVGIKQRNKAINLFLWDIYHEQKILKDKIVPSELLFSSQFYKKEMIGVDPPAGIYIHITGTDIIKHNDGKYYVLEDNLRCPSGVSYVLSNRETMKKIFFNLFSRYHVKPIMQYTEKLLSTIRSVAPDRIDNPLCVILTPGTYNSAYFEHSFLAHQMGIQLVEGRDLFVEKNFVYMKTIKGPKRVDVIYRRVDDDFIDPLVFNPKSVLGVPGLMSAYQAGNVTIINAPGTGVADDKAVYTYVPDIIKYYLGEEPILNNVPTYRCERPDEMKYVLENMHNLVVKPVDESGGYGVFIGNRKTKEEIEEYKKLILDTPRKYIAQPIMSLSVLSTFIEDSNESEQRHIDLRSFALMGKEETYVLDGGLTRVALSKGNLIVNSSQGGGSKDTWVIENY
MGSDKIHHHHHHMENRKHTSLKDLAQALGVSIPTVSRALKDSPEISRELCAKAKKLAKEMNYRPNPFAMSLRKNAPRIIGVIVPDIVTHFFASILNGIENMAIDNGYFVIITTSHESFEHEKRNIENLVNMRVEGIIACLSQETTDFSHFAALKEINMPLILFDRVCLTDQFSSVIADGAQSAQMATQHLLDNGSKRVAFIGGANHLDIVKRRKHGYLEALRDNRIPIEKELVVCRKIDYEEGQIATETLLSLPQPPDAILAMNDTLAFAAMEVIKRHGLRIPDDIAIIGYTDEQHANYVEPKLSAVSHQTYKMGETACQLLIDQIKGDRTVKQVVIPTHLQIRESSIKENNKKNAVST
MGSDKIHHHHHHMENSKVSLKIDVLVAEIGSTTTVVNAFHDINTNNPIFLGQGQAPTTVFEGGDVRNGLSGAIKDLANKLSVDDIEYNDMFATSSAAGGLKMTVHGLVYDMTVKAAKEAALGAGAVIRQITSGRIKRTDLNKIKEINPNIILIAGGVDYGERDTAIYNAEMIASMNLGIPVIYAGNVENQEEIRLIFEDTNYKLYITENVYPKIDLLNIEPTRRIIQSVFEEHITTAPGMKYIKEMVNENITPTPGAVMEASKLLYKNIGDLLTLDVGGATTDVHSVTDGSDYINKILVNPEPTAKRSVEGDLGVYVNMKNIVEVIGKENLQSELSIDIDAVIENYPPIPKSKEEILFVERLTKEAVVKAMLRHSGKIRNIYGTTGKVKIAEGKDLTEVRYIVGTGGALTRLPSRIEILDNMLKYNKNNELLFPKEKTKILIDNDYIMASMGVLSKKYEEASLKLLLKSLNFEEERLCILG
